Columns and labels:
[1] = biological target: T1, human full-length B7H3 expressed on MCF-7 cells (human, UniProt Q5ZPR3 29-534); assay: cell-based or functional assay
T1 sequence: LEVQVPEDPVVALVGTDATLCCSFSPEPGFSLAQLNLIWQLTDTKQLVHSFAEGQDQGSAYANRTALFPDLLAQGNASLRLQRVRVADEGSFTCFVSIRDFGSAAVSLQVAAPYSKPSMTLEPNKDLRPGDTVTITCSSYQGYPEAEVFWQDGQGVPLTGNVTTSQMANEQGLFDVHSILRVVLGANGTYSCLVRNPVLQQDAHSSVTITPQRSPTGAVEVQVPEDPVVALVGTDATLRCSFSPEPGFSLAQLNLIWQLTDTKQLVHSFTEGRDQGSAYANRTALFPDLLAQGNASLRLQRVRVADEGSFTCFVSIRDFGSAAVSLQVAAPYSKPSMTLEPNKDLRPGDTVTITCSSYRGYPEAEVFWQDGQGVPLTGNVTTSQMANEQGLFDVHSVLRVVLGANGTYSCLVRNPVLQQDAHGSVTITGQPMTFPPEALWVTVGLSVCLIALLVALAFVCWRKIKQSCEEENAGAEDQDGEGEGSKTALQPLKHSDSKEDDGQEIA

[2] = biological target: T2, Human B7-H3(4Ig), His Tag (human, UniProt Q5ZPR3 29-461); assay: ELISA, plate coated with 2 µg/mL recombinant human B7-H3 (4Ig) His, serially diluted antibody, HRP anti-human secondary antibody, OD450
T2 construct: Bought protein; also called recombinant human B7H3 antigen; human B7-H3 protein; not shown: His tag
T2 sequence (looked up): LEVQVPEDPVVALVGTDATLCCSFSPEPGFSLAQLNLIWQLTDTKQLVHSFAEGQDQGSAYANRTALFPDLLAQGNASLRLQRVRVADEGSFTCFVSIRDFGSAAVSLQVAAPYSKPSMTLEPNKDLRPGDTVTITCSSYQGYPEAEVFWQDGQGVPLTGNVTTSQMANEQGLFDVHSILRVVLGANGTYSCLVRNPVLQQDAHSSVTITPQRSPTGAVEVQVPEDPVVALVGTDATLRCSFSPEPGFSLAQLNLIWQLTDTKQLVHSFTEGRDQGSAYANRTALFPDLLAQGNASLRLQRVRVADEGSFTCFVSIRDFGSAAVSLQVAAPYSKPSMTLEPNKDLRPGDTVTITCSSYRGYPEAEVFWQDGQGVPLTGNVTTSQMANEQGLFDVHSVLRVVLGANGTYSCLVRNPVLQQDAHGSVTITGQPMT
Method: A 96-well ELISA plate was coated with 2 μg/mL recombinant human B7H3 antigen (see the table above) at 30 μL/well and kept at 4° C. overnight. The following day, the well plate was washed 3 times with PBST and then blocked with 5% skim milk for 2 h. […] The plate was then washed 3 times with PBST, and an HRP-labeled anti-human secondary antibody diluted in a 1:5000 ratio was then added at 100 μL/well and incubated for 1 h. After the incubation was complete, the plate was washed six times with PBST, and TMB (SurModics, TMBS-1000-01) was added for color development. Based on the results of the color development, the reaction was stopped by adding 2M HCl, and the plate was read by a microplate reader (Molecular Devices, SpecterMax 190) at OD450.

B1: W301088-1.145.16-z3-p1-uIgG1KV320 (antibody, V domains shown)
VH: QVQLQESGPGLVKPSQTLSLTCTVTDYSITGDYAWNWIRQHPGKGLEWIGYISYSGSTSYNPSLQSRVTISRDTSKNQFSLKLSSVTAADTAVYFCARSLGRRWYFVVWGQGTTVTVSS
VL: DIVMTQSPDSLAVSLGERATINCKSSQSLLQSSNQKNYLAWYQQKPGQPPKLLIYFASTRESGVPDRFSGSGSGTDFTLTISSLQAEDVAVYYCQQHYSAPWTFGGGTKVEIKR
notes: Humanized, PTM-removed (VL N027dQ) human IgG1 LALA kappa antibody; also called WBP301088; W301088-z3-p1
Antibody internalization EC50, MCF-7 cells (value in running text, differs from Table 16) [1]: 0.51 nM
EC50 (read off the curve) [2]: ~0.2 µg/mL

— patent US20240148892A1 (DUALITY BIOLOGICS SUZHOU, published 2024)
